{"source": "the nanobody polyreactivity screen of Harvey et al. (2022)", "test": "yeast display, Sf9 membrane polyspecificity reagent, FACS + sequencing; frameworks hold sequencing errors", "summary_of_the_method": "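Using colony PCR, genes from sorted yeast display clones were amplified, then sequenced on MiSeq at 2 × 250 and filtered by CDR length. The clones had been stained with 10% biotinylated, detergent-solubilized Sf9 membrane reagent for 1 hour at 4 °C and sorted by FACS into low and high (top ~1%) gates on anti-HA and streptavidin fluorescence. Polyreactivity labels come from the gate of origin.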", "data": [{"sequence": "QVQLVESGGGLVQAGGSLRLSCAASGSIFWFYAMGWYRQAPGKERELVAAITSTGGTYYADSVKGRFTISRDNAKNTVYLQMNSLKPEDTAVYYCAADRIGGPGSYLYDYWGQGTQVTVSS", "values": [{"measurement": "polyreactivity (PSR sort gate)", "value": "low polyreactivity"}]}, {"sequence": "QVQLVESGGGLVQAGGSLRLSCAASGSIFWFYGMGWYRQAPGKERELVAAISWSGGNTYADSVKGRFTISRDNAKNTVYVQMNSLKPEDTAVYYCNAVVRAYYTSIWVPRYDYWGQGTQVTVSS", "values": [{"measurement": "polyreactivity (PSR sort gate)", "value": "high polyreactivity"}]}, {"sequence": "QVQLVESGGGLVQAGGSLRLSCAASGSIFWGNAMGWYRQAPGKERELVAAIRRGTSTYYADSVKGRFTISRDNAKNTVYVQMNSLKPEDTAVYYCAASPFRYVYHFDYWGQGTQVTVSS", "values": [{"measurement": "polyreactivity (PSR sort gate)", "value": "high polyreactivity"}]}, {"sequence": "QVQLVESGGGLVQAGGSLRLSCAASGSIFWGYAMGWNRQAPRKEREMVATITYGGDSTYYADSVKGRFTISRDNAKNTVYLQMNSLKPEDTAVYYCNVGVEPYDYVYWGQGTQVTVSS", "values": [{"measurement": "polyreactivity (PSR sort gate)", "value": "low polyreactivity"}]}, {"sequence": "QVQLVESGGGLVQAGGSLRLSCAASGSIFWGYAMGWYRQAPGKERELVAVISRGGSTYYADSVKGRFTISRDNAKNTVYLQMNSLKPEDTAVYYCADSSSWFYSPEYDYWGQGTQVTVSS", "values": [{"measurement": "polyreactivity (PSR sort gate)", "value": "low polyreactivity"}]}, {"sequence": "QVQLVESGGGLVQAGGSLRLSCAASGSIFWGYDMGWYRQAPGKERELVASISYSGGSTSYADSVKGRFTISRDNAKNTVYLQMNSLKPEDTAVYYCAADEGGFWWTYPYDSWGQGTQVTVSS", "values": [{"measurement": "polyreactivity (PSR sort gate)", "value": "low polyreactivity"}]}, {"sequence": "QVQLVESGGGLVQAGGSLRLSCAASGSIFWKNVMGWYRHAPGKERELVAGISQNGGSTTYADSVKGRFTISRDNAKNTVYLQMNSLKPEDTAVYYCAAKRYGPFKYGYWGQGTQVTVSS", "values": [{"measurement": "polyreactivity (PSR sort gate)", "value": "high polyreactivity"}]}, {"sequence": "QVQLVESGGGLVQAGGSLRLSCAASGSIFWLYAMGWYRQAPGKERELVAAISWSGTSTNYADSVKGRFTISRDNAKNTVYLQMNSLKPEDTAVYYCAAKWHVRGRGARYRYDYDYWGQGTQVTVSS", "values": [{"measurement": "polyreactivity (PSR sort gate)", "value": "low polyreactivity"}]}, {"sequence": "QVQLVESGGGLVQAGGSLRLSCAASGSIFWNNAMGWYRQAPGKERELVAGISSAGSTNYADSVKGRFTISRDNAKNTVYLQMNILKPEDTAVYYCAAVYYGGFSDYDYWGQGTQVTVSS", "values": [{"measurement": "polyreactivity (PSR sort gate)", "value": "low polyreactivity"}]}, {"sequence": "QVQLVESGGGLVQAGGSLRLSCAASGSIFWPNAMGWYRQAPGKERELVAAISWGTGSTYYADSVKGRFTISRDNAKNTVYLQMNSLKPEDTAVYYCAADGAYLDPYYDYWGQGTQVTVLS", "values": [{"measurement": "polyreactivity (PSR sort gate)", "value": "low polyreactivity"}]}, {"sequence": "QVQLVESGGGLVQAGGSLRLSCAASGSIFWPYAMGWYRQAPGKDRELVATITWTGGSTYYADSVKGRFTISRDNAKNTVYLQMNSLKPEDTAVYYCAAAGYYGYGYDYWGQGTQVTVSS", "values": [{"measurement": "polyreactivity (PSR sort gate)", "value": "low polyreactivity"}]}, {"sequence": "QVQLVESGGGLVQAGGSLRLSCAASGSIFWPYAMGWYRQAPGKERELVAAITWSGSSTYYADSVKGRFTISRDNAKNTVYLQMKSLKPEDTAVYYCAKRGWGIYDYWGQGTQVTVSS", "values": [{"measurement": "polyreactivity (PSR sort gate)", "value": "low polyreactivity"}]}, {"sequence": "QVQLVESGGGLVQAGGSLRLSCAASGSIFWPYAMGWYRQAPGKERELVAGISRSGGITYYADSVKGRFTISRDNAKNTVYLQMNSLKPEDTAVYYCARYQEWRQEYDYWGQGTQVTVSS", "values": [{"measurement": "polyreactivity (PSR sort gate)", "value": "high polyreactivity"}]}, {"sequence": "QVQLVESGGGLVQAGGSLRLSCAASGSIFWRNAMGWYRQAPGKERELVAAITSGGTTNYADSVKGRFTISRDNAKNTVYLQMISLIPEDTAVYYCATGASYLRRYDHPHSDVDYWGQGTQVTVSS", "values": [{"measurement": "polyreactivity (PSR sort gate)", "value": "low polyreactivity"}]}, {"sequence": "QVQLVESGGGLVQAGGSLRLSCAASGSIFWSNAMGWYRPATGKERELVAAISSGGSTYADSVKGRFTISRDNAKNTVYLQMNSLKPVDTAVYYCNADVLYGDYYRGGYWGQGTQVTVSS", "values": [{"measurement": "polyreactivity (PSR sort gate)", "value": "low polyreactivity"}]}, {"sequence": "QVQLVESGGGLVQAGGSLRLSCAASGSIFWSNAMGWYRQAPGKEREFVAAITWSGDNTYYADSVKGRFTISRDNAKNTVYLQMNSLKPEDTAVYYCAASGDYYWDEGDYWGQGTQVTVSS", "values": [{"measurement": "polyreactivity (PSR sort gate)", "value": "low polyreactivity"}]}, {"sequence": "QVQLVESGGGLVQAGGSLRLSCAASGSIFWSNAMGWYRQAPGKEREFVATITNGTTTNYADSVKGRFTISRDNAKNTVYLQMNSLKPEDTAVYYCAVTGVYVKYDYWGQGTQVTVSS", "values": [{"measurement": "polyreactivity (PSR sort gate)", "value": "low polyreactivity"}]}]}
